# Publication PMC6383938 (PLoS Biology, 2019)
# Legend:
# [1] = target: human copper chaperone for SOD1 domain II–III construct (human); test: SEC-MALS; SEC and light scattering–derived molecular weights of hCCS truncations at micromolar concentration
# [2] = target: the molecule itself; test: SEC; size exclusion chromatograms of hCCS alone (wild type and Ala231Gly); relative amounts of dimeric and monomeric species
# [3] = target: human superoxide dismutase-1 as used in the SEC complexation assays (variant not stated) (human) (UniProt P00441); test: SEC; complexation of hCCS dimer interface variants with hSOD1 followed over a time course from 8 minutes to 4 days; Agilent BioSec Advance 300 Å 4.6 × 300 mm column; heterodimer peak height plotted
molecule,measurement,setting,value
human copper chaperone for SOD1 domain II–III construct (domain or fragment),stoichiometry N,[1],2
"human copper chaperone for SOD1 Ala231Gly (natural protein, UniProt O14618 1-274, looked up, also called Ala231Gly hCCS; A231G hCCS; source: expressed and purified as previously described [29,35,42]) MASDSGNQGTLCTLEFAVQMTCQSCVDAVRKSLQGVAGVQDVEVHLEDQMVLVHTTLPSQEVQALLEGTGRQAVLKGMGSGQLQNLGAAVAILGGPGTVQGVVRFLQLTPERCLIEGTIDGLEPGLHGLHVHQYGDLTNNCNSCGNHFNPDGASHGGPQDSDRHRGDLGNVRADADGRAIFRMEDEQLKVWDVIGRSLIIDEGEDDLGRGGHPLSKITGNSGERLACGIIGRSAGLFQNPKQICSCDGLTIWEERGRPIAGKGRKESAQPPAHL",binding result,[2],binds
same,fold slower complexation than with wild-type hCCS,[3],> 300 fold
"wild-type human copper chaperone for SOD1 (natural protein, UniProt O14618 1-274, looked up, human copper chaperone for SOD1 (hCCS), wild type; also called hCCS; wild-type hCCS; source: expressed and purified as previously described [29,35,42]) MASDSGNQGTLCTLEFAVQMTCQSCVDAVRKSLQGVAGVQDVEVHLEDQMVLVHTTLPSQEVQALLEGTGRQAVLKGMGSGQLQNLGAAVAILGGPGTVQGVVRFLQLTPERCLIEGTIDGLEPGLHGLHVHQYGDLTNNCNSCGNHFNPDGASHGGPQDSDRHRGDLGNVRADADGRAIFRMEDEQLKVWDVIGRSLIIDEGEDDLGRGGHPLSKITGNSGERLACGIIARSAGLFQNPKQICSCDGLTIWEERGRPIAGKGRKESAQPPAHL",binding result,[2],binds
